B1: LY-CoV1404 Fab (Fab, V domains shown)
VH: QITLKESGPTLVKPTQTLTLTCTFSGFSLSISGVGVGWLRQPPGKALEWLALIYWDDDKRYSPSLKSRLTISKDTSKNQVVLKMTNIDPVDTATYYCAHHSISTIFDHWGQGTLVTVSS
VL: QSALTQPASVSGSPGQSITISCTATSSDVGDYNYVSWYQQHPGKAPKLMIFEVSDRPSGISNRFSGSKSGNTASLTISGLQAEDEADYYCSSYTTSSAVFGGGTKLTVL
B2: 2-7 Fab (Fab, V domains shown)
VH: B1 VH with I31T, L39I, S72T, K83T, I87M, S101K, S103E, T104R, H108Y
VL: B1 VL with T5A, A24G, D31A, F51Y, E52D, D55K, I60V, A98T
B3: 2-7 D54N Fab (Fab, V domains shown)
VH: B1 VH with I31T, L39I, D56N, S72T, K83T, I87M, S101K, S103E, T104R, H108Y
VL: B1 VL with T5A, A24G, D31A, F51Y, E52D, D55K, I60V, A98T

Numbering of substitutions follows the chain as printed. In names and notes the source's numbering stands.

The experiment deals with receptor-binding domain (RBD) (residues 319-541) of the SARS-CoV-2 spike (S) protein (SARS-CoV-2, UniProt P0DTC2 319-541). The experiment is described as follows: BLI.
B1: the dissociation constant Kd – broadly, the free concentration of one partner at which half of the binding sites on the other are occupied at equilibrium, for simple one-to-one binding – is 1.6 nM. Under B2 stands 38 nM; under B3, greater than 5000 nM.

The values are drawn from publication PMC9606039 (2022).
